The target of assay [1] is SARS-CoV-2 Wuhan-1 full-length Spike protein on pseudovirus (SARS-CoV-2, UniProt P0DTC2 14-1273). The assay can be described thus: cell-based or functional assay.
Assay [2] has as its target SARS-CoV-1 spike protein on pseudovirus (SARS-CoV-1, UniProt P59594 14-1255). The assay can be described thus: cell-based or functional assay.
For assay [3], the target named is SARS-CoV-2 spike protein on fully infectious (replication-competent) SARS-CoV-2 virus (SARS-CoV-2, UniProt P0DTC2 14-1273). The assay can be described thus: cell-based or functional assay.
The target in assay [4] is SARS-CoV-2 S2 protein (SARS-CoV-2, UniProt P0DTC2 686-1213).
Assay [5] addresses SARS-CoV-2 spike S1 protein (SARS-CoV-2, UniProt P0DTC2 16-685).
The target in assay [6] is SARS-CoV-2 spike receptor-binding domain (RBD) (SARS-CoV-2, UniProt P0DTC2 319-541).

Some results are limits rather than exact numbers.

B1: AB-009346 (antibody, V domains shown)
VH: EVQLVESGGGVVRPGGSLRLSCAASGFTFDDYGMSWVRQAPGKGLEWVSGINWNGGSTGYADSVKGRFTISRDNAKNSLYLQMNSLRAEDTALYYCARWPLLGISGYYHYYMDVWGKGTTVTVSS
VL: QSALTQPRSVSGSPGQSVTISCTGTSSDVGGYNYVSWYQQHPGKAPKLMIYDVSKRPSGVPDRFSGSKSGNTASLTISGLQAEDEADYYCCSYAGSYTLLFGGGTKLIVL
For B1, the “Pseudovirus Neturalization” value in assay [1] is 0.774 µg/mL; in assay [2] it was over 50 µg/mL. In addition, in assay [3], the “Neutralization (Infectious virus; (µg/mL))” value (“Neutralization” below) was 2.14 µg/mL.

B2: AB-009615 (antibody, V domains shown)
VH: QVQLVESGGGVVQPGRSLRLSCAASGFTFSSYGMHWVRQAPGKGLEWVAVIWYDGSNKYYADSVKGRFTISRDNSKNTLYLQMNSLRAEDTAVYYCAKVGSPYCSGGSCYSGYFDYWGQGTLVTVSS
VL: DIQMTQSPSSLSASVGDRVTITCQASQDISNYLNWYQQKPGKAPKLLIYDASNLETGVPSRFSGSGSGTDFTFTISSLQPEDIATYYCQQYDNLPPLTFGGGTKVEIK
B2: the “Pseudovirus Neturalization” value is 27.7 µg/mL in assay [1] and over 50 µg/mL in assay [2]. In assay [3], the “Neutralization” value is 12.3 µg/mL.

B3: AB-009283 (antibody, V domains shown)
VH: EVQLVESGGGLIQPGGSLRLSCAASGFTVSSNYMSWVRQAPGKGLEWVSVIYSGGSTYYADSVKGRFTISRDNSKNTLYLQMNSLRAEDTAVYYCATSSFDYYYYFMDVWGKGTTVTVSS
VL: SYELTQPPSVSVSPGQTASITCSGDKLGDKYACWYHQKPGQSPVLVIYQDTKRPSGIPERFSASNSGNTATLTISGTQALDEADYYCQAWDSSIVVFGGGTKLTVL
Turning to B3, in assay [4], the Kd was 22.7 nM, the koff was 0.000319 s⁻¹ and the kon stood at 14100 M⁻¹ s⁻¹.

B4: AB-009710 (antibody, V domains shown)
VH: LVQLIQSGAEVVKPGSSVKVSCTASGGSYSSYTLSWVRQAPGQGVEWLGRISPVLNTTYYAQKLEGRVTMTADESTSTVYMQLSSLRSEDTAVYYCARLASMNGVDIWGQGTSVTVSS
VL: EIVLTQSPGTLSLSPGERATLSCRASQSVYGSYLAWYQQKPGQAPRLLIYGGSSRATGIPDRFSGSGSGTDFTLTISRLEPEDFAVYYCHQYGTSRYSFGQGTKLDIK
For B4, in assay [4], the Kd amounted to 46.8 nM, the koff worked out at 0.000591 s⁻¹ and the kon amounted to 12600 M⁻¹ s⁻¹.

B5: AB-009610 (antibody, V domains shown)
VH: QVQLVQSGAEVKKPGSSVKVSCKASGGTFSNYAISWVRQAPGQGLEWMGRIIPILGIANYAQKFQGRVTITADKSTSTAYMELSSLRSEDTAVYYCATTPYYYDSSGYYLDYWGQGTLVTVSS
VL: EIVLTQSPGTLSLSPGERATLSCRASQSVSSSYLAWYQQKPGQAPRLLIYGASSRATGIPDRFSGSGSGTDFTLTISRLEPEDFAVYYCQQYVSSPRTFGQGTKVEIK
Turning to B5, in assay [5], the Kd was found to be 111 nM, the koff was 0.00456 s⁻¹ and the kon stood at 41100 M⁻¹ s⁻¹. In assay [6], this molecule registered a Kd of 21.6 nM, a koff of 0.00107 s⁻¹ and a kon of 49500 M⁻¹ s⁻¹.

B6: AB-009281 (antibody, V domains shown)
VH: EVQLVETGGGLIQPGGSLRLSCAASGFTVSSNYMSWVRQAPGKGLEWVSVIYSGGSTYYADSVKGRFTISRDNSKNTLYLQMNSLRAEDTAVYYCARDLYYYGMDVWGQGTTVTVSS
VL: DIQLTQSPSFLSASVGDRVTITCRASQGISSYLAWYQQKPGKAPKLLIYAASTLQSGVPSRFSGSGSGTEFTLTISSLQPEDFATYYCQQLNSYPTFGQGTKVEIK
On to B6, for which the figures for the “Pseudovirus Neturalization” value in assay [1] and in assay [2] were 0.215 µg/mL and over 50 µg/mL, respectively. Besides, the “Neutralization” value in assay [3] was found to be 33.7 µg/mL.

B7: AB-009613 (antibody, V domains shown)
VH: EVQLVESGGGLIQPGGSLRLSCAASGFTVSSNYMSWVRQAPGKGLEWVSVIYSGGSTYYADSVKGRFTISRDNSKNTLYLQMNSLRAEDTAVYYCARDYGDFYFDYWGQGTLVTVSS
VL: not shown
In assay [5], B7 had a Kd of 16.1 nM, a koff of 0.00102 s⁻¹ and a kon of 63600 M⁻¹ s⁻¹. Further, in assay [6], the Kd turned out to be 4.26 nM, the koff is 0.000313 s⁻¹ and the kon came out at 73400 M⁻¹ s⁻¹.

B8: AB-009271 (antibody, V domains shown)
VH: EVQLVESGGGLIQPGGSLRLSCAASGFIVSSNYMSWVRQAPGKGLEWVSVIYSGGSTYYADSVKGRFTISRDNSKNTLYLQMNSLRAEDTAVYYCARDYGDFYFDYWGQGTLVTVSS
VL: EIVMTQSPATLSVSPGERATLSCRASQSVSSNLAWYQQKPGQAPRLLIYGASTRATGIPARFSGSGSGTEFTLTISSLQSEDFAVYYCQQYYNWPRTFGQGTKVEIK
In assay [5], B8 returned a Kd of 55.4 nM, a koff of 0.0042 s⁻¹ and a kon of 75900 M⁻¹ s⁻¹. In assay [6], this molecule came in with a Kd of 15.1 nM, a dissociation rate constant (koff) of 0.00141 s⁻¹ and a kon of 93200 M⁻¹ s⁻¹.

B9: AB-010020 (antibody, V domains shown)
VH: QMQLVQSGPEVKKPGTSVKVSCKASGFTFTSSAVQWVRQARGQRLEWIGWIVVGSGNTNYAQKFQERVTITRDMSTSTAYMELSSLRSEDTAVYYCAAPACSSTSCYDGFDIWGQGTMVTVSS
VL: not shown
With B9, in assay [5], binding was characterised by a dissociation constant (Kd) of 13.5 nM, the koff turned out to be 0.0069 s⁻¹ and the kon is 512000 M⁻¹ s⁻¹. In addition, in assay [6], the Kd came out at 2.16 nM, the koff came out at 0.00212 s⁻¹ and the kon is 980000 M⁻¹ s⁻¹.

B10: AB-010021 (antibody, V domains shown)
VH: QMQLVQSGPEVKKPGTSVKVSCKASGFTFTSSAVQWVRQARGQRLEWIGWIVVGSGNTNYAQKFQERVTITRDMSTSTAYMELSSLRSEDTAVYYCAAVYCSGGSCLDAFDIWGQGTMVTVSS
VL: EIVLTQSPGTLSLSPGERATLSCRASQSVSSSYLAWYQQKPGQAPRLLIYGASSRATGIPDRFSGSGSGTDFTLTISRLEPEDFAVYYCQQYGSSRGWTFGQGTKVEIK
Turning to B10, in assay [5], the Kd amounted to 12.5 nM, the koff was determined as 0.00214 s⁻¹ and the kon came out at 171000 M⁻¹ s⁻¹. In addition, in assay [6], the Kd is 12.4 nM, the dissociation rate constant (koff) was found to be 0.00275 s⁻¹ and the kon was found to be 221000 M⁻¹ s⁻¹.

B11: AB-009734 (antibody, V domains shown)
VH: QVHLVQSGAEVKTPGASVRVSCKASGYTFTSHYMHWVRQAPGQGLEWMGLINPSGSGTAYPQHFQGRVTMTRDTSTTTDYMDLSSLRSEDTAMYFCARMERSGAFDLWGQGTMVTVSS
VL: EIVLTQSPGTLSLSPGERATLSCRASQTISSRYLAWYYQKPGQAPRLLIQGSSIRATGIPDRFSGSGSGTDFTLTISRLEPEDFAVYYCQHYGSSPPMYTFGQGTKLEIK
With B11, the “Pseudovirus Neturalization” value in assay [1] is 42.4 µg/mL; in assay [2], over 50 µg/mL. Also, in assay [3], the “Neutralization” value came out at 21.4 µg/mL.

B12: AB-009614 (antibody, V domains shown)
VH: QVQLVESGGGVVQPGRSLRLSCAASGFTFSSYGMHWVRQAPGKGLEWVAVISYDGSNKYYADSVKGRFTISRDNSKNTLYLQMNSLRAEDTAVYYCAKDQKYYDILTGYYRSTYYYYYYGMDVWGQGTTVTVSS
VL: not shown
Consider B12, for which the “Pseudovirus Neturalization” value was 0.142 µg/mL in assay [1] and over 50 µg/mL in assay [2]. Moreover, in assay [3], the “Neutralization” value came to 0.075 µg/mL.

B13: AB-009769 (antibody, V domains shown)
VH: EVQLVESGGGLVQPGGSLRLSCAASGFTFSSYWMSWVRQAPGKGLEWVANIKQDGSEKYYVDSVKGRFTISRDNAKNSLYLQMNSLRAEDTAVYYCARSPEVLWFGDPVLDNWFDPWGQGTLVTVSS
VL: SYELTQPPSVSVSPGQTARITCSGDALPKQYAYWYQQKPGQAPVLVIYKDSERPSGIPERFSGSSSGTTVTLTISGVQAEDEADYYCQSADSSGTYPVVFGGGTKLTVL
As for B13, the “Pseudovirus Neturalization” value in assay [1] and in assay [2] was over 50 µg/mL in each case. In addition, the “Neutralization” value in assay [3] was determined as 24.5 µg/mL.

B14: AB-009661 (antibody, V domains shown)
VH: QVQLVESGGGVVQPGRSLRLSCAASGFTFSSYGMHWVRQAPGKGLEWVAVISYDGSNKYYADSVKGRFTISRDNSKNTLYLQMNSLRAEDTAVYYCAKDYGDYGGMDVWGQGTTVTVSS
VL: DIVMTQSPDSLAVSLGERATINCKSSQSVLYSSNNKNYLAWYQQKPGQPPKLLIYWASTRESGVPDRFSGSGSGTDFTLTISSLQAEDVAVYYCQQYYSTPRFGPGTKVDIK
On to B14, for which the “Pseudovirus Neturalization” value in assay [1] and in assay [2] was over 50 µg/mL throughout. Besides, in assay [3], the “Neutralization” value was found to be 20.6 µg/mL.

The values are drawn from patent US20240327505A1 (published 2024).
